Assay results reported in PMC4072569 (Molecular Biology of the Cell, 2014).

B1: Mob1p-mEGFP (natural protein, S. pombe, UniProt O94360 1-210, looked up)
chain: MFGFSNKTAKTFRVRKTEAGTKHYQLRQYAEATLGSGSLMEAVKLPKGEDLNEWIAMNTMDFYTQINMLYGTITEFCTAASCPQMNAGPSYEYYWQDDKIYTKPTRMSAPDYINNLLDWTQEKLDDKKLFPTEIGVEFPKNFRKVIQQIFRRLFRIYAHIYCSHFHVMVAMELESYLNTSFKHFVFFCREFGLMDNKEYAPMQDLVDSMV
B2: Cdc15p-mEGFP (natural protein, S. pombe, UniProt Q09822 1-927, looked up)
chain: MEVNGVSQSEAAPYVTKSSVKFRDNFWGSEDAGMDALMSRTKSSLSVLESIDEFYAKRASIEREYASKLQELAASSADIPEVGSTLNNILSMRTETGSMAKAHEEVSQQINTELRNKIREYIDQTEQQKVVAANAIEELYQKKTALEIDLSEKKDAYEYSCNKLNSYMRQTKKMTGRELDKYNLKIRQAALAVKKMDAEYRETNELLLTVTREWIDRWTEVCDAFQHIEEYRLEFLKTNMWAYANIISTACVKDDESCEKIRLTLENTNIDEDITQMIQNEGTGTTIPPLPEFNDYFKENGLNYDIDQLISKAPSYPYSSSRPSASASLASSPTRSAFRPKTSETVSSEVVSSPPTSPLHSPVKPVSNEQVEQVTEVELSIPVPSIQEAESQKPVLTGSSMRRPSVTSPTFEVAARPLTSMDVRSSHNAETEVQAIPAATDISPEVKEGKNSENAITKDNDDIILSSQLQPTATGSRSSRLSFSRHGHGSQTSLGSIKRKSIMERMGRPTSPFMGSSFSNMGSRSTSPTKEGFASNQHATGASVQSDELEDIDPRANVVLNVGPNMLSVGEAPVESTSKEEDKDVPDPIANAMAELSSSMRRRQSTSVDDEAPVSLSKTSSSTRLNGLGYHSRNTSIASDIDGVPKKSTLGAPPAAHTSAQMQRMSNSFASQTKQVFGEQRTENSARESLRHSRSNMSRSPSPMLSRRSSTLRPSFERSASSLSVRQSDVVSPAPSTRARGQSVSGQQRPSSSMSLYGEYNKSQPQLSMQRSVSPNPLGPNRRSSSVLQSQKSTSSNTSNRNNGGYSGSRPSSEMGHRYGSMSGRSMRQVSQRSTSRARSPEPTNRNSVQSKNVDPRATFTAEGEPILGYVIALYDYQAQIPEEISFQKGDTLMVLRTQEDGWWDGEIINVPNSKRGLFPSNFVQTV
B3: Sid2p-mEGFP (natural protein, S. pombe, UniProt Q09898 1-607, looked up)
chain: MNRVNDMSPVEGDLGLQLSSEADKKFDAYMKRHGLFEPGNLSNNDKERNLEDQFNSMKLSPVASSKENYPDNHMHSKHISKLPIASPIPRGLDRSGELSYKDNNHWSDRSSTGSPRWENGSMNLSVEEMEKVVQPKVKRMATICQMFFLDHYFEQLHYLYTRKQRARLFEEQLLKEPDSRRDELVKRYNGRERVYLRKRRTRISHGDFQTITQVGQGGYGSVWLARKRDTKEIVALKIMNKSVLHKMDEIRHVLTERDILTTANSEWLVRLLYAFQDTSNIYLAMEFVPGGDFRTLLSNSGVLRDHHAKFYATEMFLAIDALHQLGYIHRDLKPENFLVGASGHIKLTDFGLSSGIISKKKIESMKIRLQEVNNVVVPERSMRERRQVFRTLLSQDPVYAHSVVGSPDYMAPEVLRGENYNHSVDYWSLGCIMYECLSGFPPFSGSNVNETWSNLKNWRKCFQRPHYDDPRDLEFNWRDDAWDFVCHCITDPKDRFCSLKQVMQHPYFSKIDWKNVRTAYRPPFVPDLNSEIDAGYFDDFTNENDMSKYKEVHEKQAAIANMVNTFNKPKRNAFIGFTFRHQKNSHPTSSSSALSSPLSAPSFGTLL
B4: Blt1p-hexahistidine (natural protein, S. pombe, UniProt O74338 1-700, looked up)
chain: MSKSAFTSKSQLKGIDGSFNDPFRQPSMNLPTPPHDDGLPSIPRSTALPNLSNRLSPYSHRNYLPIPEADSRNLEVLNSISLTTGSVVNQINKLYQRSCDNANYLQDLRSLILQTPTAEANATQVTESLNQIQKILQEASSKDREQIVQVIKELNKGNSLEVRRELGNCLAHLKKGTLNIDNALQASLQKYWKELQYFNVSKDKLLSLEESIKLLSARLEETDTPSSTHWIEINAGFKEVGDELSENFQRKQEILSGLQNNVILRTNNRKPVGSDGSNSNFNGGEEQMDSKDQEEIQDYLNSLLSVHEKDGVLLQKFHNSYVQYQKLAVALSKYENFDADKLFQQMNLAKQSNETLLQTLTEQTDQLLSFKETMDSFKFILGPSMENQALQQGILAEQQDLVAQLRDIVLRSETLAENPSNMPGSCLPGASSNTADEFTEQLNLLKNEVARLSAICPSPNSGINASVLTNADNLEKENLLLVNNNAFKVDDRSVSSVALDDHNRQLQMNVEELEGKKADLTSKINRLDKDFVKLNTTYSLLTDQVKTKQLALQEIESRVIRLEERLNMLQKLSMQPAISSSSEFVPIESHPSSSAVVPIEEPKNSIIEKKRVPHNAARNSVNLEVTLPNSKKRFSSFSGSSSKLPVRPSTALTDKRKPSWSRRLAAAIGFSSGSPEKKHVITSSDAGHQRSKSRSFSSKM

Columns and labels:
Blt1p-hexahistidine = target: B4; assay: pull-down
AUC = target: the molecule itself; assay: AUC

Row | Binder | percent pulled down from lysate (Blt1p-hexahistidine) [%] | stoichiometry N (AUC)
1 | B1 | 42 | –
2 | B2 | 23 | –
3 | B3 | 22 | –
4 | B4 | – | 4
